In patent publication US20200164029A1 (ACCELERON PHARMA, published 2020):

T1: hENG(26-586) (R&D Systems, catalog #1097-EN) (human, UniProt P17813 26-586)
T1 construct: also called soluble human ENG extracellular domain
T1 sequence: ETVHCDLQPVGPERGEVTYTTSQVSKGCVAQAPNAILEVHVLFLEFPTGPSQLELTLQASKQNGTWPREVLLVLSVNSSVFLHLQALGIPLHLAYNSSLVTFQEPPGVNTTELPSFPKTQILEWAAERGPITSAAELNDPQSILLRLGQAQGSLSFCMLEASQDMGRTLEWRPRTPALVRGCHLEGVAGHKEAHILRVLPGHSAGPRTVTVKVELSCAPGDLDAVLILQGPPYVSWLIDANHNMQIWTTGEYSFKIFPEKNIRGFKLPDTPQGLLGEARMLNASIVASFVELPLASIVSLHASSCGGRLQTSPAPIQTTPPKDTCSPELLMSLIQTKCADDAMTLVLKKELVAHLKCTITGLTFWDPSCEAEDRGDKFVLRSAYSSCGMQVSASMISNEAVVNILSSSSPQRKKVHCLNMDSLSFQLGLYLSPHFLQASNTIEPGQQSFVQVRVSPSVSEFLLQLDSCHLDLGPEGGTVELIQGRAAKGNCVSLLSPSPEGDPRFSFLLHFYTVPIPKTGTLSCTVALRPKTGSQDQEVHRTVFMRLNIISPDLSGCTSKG

B1: activin receptor IIB (receptor, human, UniProt Q13705 19-134, looked up)
chain: SGRGEAETRECIYYNANWELERTNQSGLERCEGEQDKRLHCYASWRNSSGTIELVKKGCWLDDFNCYDRQECVATEENPQVYFCCCEGNFCNERFTHLPEAGGPEVTYEPPPTAPT
notes: also called ActRIIB
B2: TGF-β receptor II (receptor, human, UniProt P37173 24-159, looked up)
chain: IPPHVQKSVNNDMIVTDNNGAVKFPQLCKFCDVRFSTCDNQKSCMSNCSITSICEKPQEVCVAVWRKNDENITLETVCHDPKLPYHDFILEDAASPKCIMKEKKKPGETFFMCSCSSDECNDNIIFSEEYNTSNPD
B3: ALK2 (receptor, human, UniProt Q04771 21-123, looked up)
chain: MEDEKPKVNPKLYMCVCEGLSCGNEDHCEGQQCFSSLSINDGFHVYQKGCFQVYEQGKMTCKTPPSPGQAVECCQGDWCNRNITAQLPTKGKSFPGTQNFHLE
notes: Member of the printed range ALK2-ALK7; also called type I receptor ALK2
B4: ALK4 (receptor, human, UniProt P36896 24-126, looked up)
chain: SGPRGVQALLCACTSCLQANYTCETDGACMVSIFNLDGMEHHVRTCIPKVELVPAGKPFYCLSSEDLRNTHCCYTDYCNRIDLRVPSGHLKEPEHPSMWGPVE
notes: Member of the printed range ALK2-ALK7; also called type I receptor ALK4
B5: ALK3 (receptor, human, UniProt P36894 24-152, looked up)
chain: QNLDSMLHGTGMKSDSDQKKSENGVTLAPEDTLPFLKCYCSGHCPDDAINNTCITNGHCFAIIEEDDQGETTLASGCMKYEGSDFQCKDSPKAQLRRTIECCRTNLCNQYLQPTLPPVVIGPFFDGSIR
notes: Member of the printed range ALK2-ALK7; also called type I receptor ALK3
B6: ALK7 (receptor, human, UniProt Q8NER5 21-113, looked up)
chain: ELSPGLKCVCLLCDSSNFTCQTEGACWASVMLTNGKEQVIKSCVSLPELNAQVFCHSSNNVTKTECCFTDFCNNITLHLPTASPNAPKLGPME
notes: Member of the printed range ALK2-ALK7; also called type I receptor ALK7
B7: ALK6 (receptor, human, UniProt O00238 14-126, looked up)
chain: KKEDGESTAPTPRPKVLRCKCHHHCPEDSVNNICSTDGYCFTMIEEDDSGLPVVTSGCLGLEGSDFQCRDTPIPHQRRSIECCTERNECNKDLHPTLPPLKNRDFVDGPIHHR
notes: Member of the printed range ALK2-ALK7; also called type I receptor ALK6
B8: ALK5 (receptor, human, UniProt P36897 34-126, looked up)
chain: LQCFCHLCTKDNFTCVTDGLCFVSVTETTDKVIHNSMCIAEIDLIPRDRPFVCAPSSKTGSVTTTYCCNQDHCNKIELPTTVKSSPGLGPVEL
notes: Member of the printed range ALK2-ALK7; also called type I receptor ALK5
B9: bone morphogenetic protein receptor II (receptor, human, UniProt Q13873 27-150, looked up)
chain: SQNQERLCAFKDPYQQDLGIGESRISHENGTILCSKGSTCYGLWEKSKGDINLVKQGCWSHIGDPQECHYEECVVTTTPPSIQNGTYRFCCCSTDLCNVNFTENFPPPDTTPLSPPHSFNRDET
notes: also called BMPRII

Target: T1, hENG(26-586) (R&D Systems, catalog …)
Assay: SPR

Binding result, no binding:
B1, B2, B3, B4, B5, B6, B7, B8, B9
